Measured values as given in PMC5575276.

Legend:
[1] = target: recombinant hexa-his-streptavidin (UniProt P22629); test: non-denaturing SDS-PAGE; purified and refolded protein on SDS-PAGE under non-denaturing against denaturing conditions
[2] = target: TLM-core protein (2xTLM-HA-HBV core with strep-tag III in the spike tip), assembled to TLM-carrier capsid (hepatitis B virus) (UniProt P03146); test: SPR; Biacore T200; TLM-carrier capsid (TLM-core protein) immobilised on a CM5 chip; streptavidin injected at five concentrations (4.7-75.7 nM) or streptavidin-Ova at six concentrations (1.9-62.5 nM); fitted with the heterogeneous ligand and the bivalent analyte models (1:1 model fitted poorly)
Sequence of UniProt P03146 (P03146 whole entry, the tested form may be a part): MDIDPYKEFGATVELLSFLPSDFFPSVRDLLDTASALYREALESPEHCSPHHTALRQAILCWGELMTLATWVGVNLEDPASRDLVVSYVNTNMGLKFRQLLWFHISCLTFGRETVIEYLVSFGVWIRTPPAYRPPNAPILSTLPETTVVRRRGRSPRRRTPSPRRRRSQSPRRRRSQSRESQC

[3] = target: TLM-core protein (2xTLM-HA-HBV core with strep-tag III in the spike tip), assembled to TLM-carrier capsid (hepatitis B virus) (UniProt P03146)
[4] = target: streptavidin-Ova fusion protein (streptavidin, hexa-his tag, ovalbumin); test: non-denaturing SDS-PAGE; purified and refolded protein on SDS-PAGE under non-denaturing against denaturing conditions

Row | Substance | stoichiometry N [1] | KD2 (heterogeneous ligand model, set 2, strong interaction) [2] [nM] | Ka1 (on-rate, bivalent analyte model, step 1) [2] [M^- s^−1] | Ka2 (on-rate, bivalent analyte model, step 2) [2] [RU^- s^-] | Ka2 (on-rate, heterogeneous ligand model, set 2, strong interaction) [2] [M^- s^−1] | Kd1 (off-rate, bivalent analyte model, step 1) [2] [s⁻¹] | Kd2 (off-rate, bivalent analyte model, step 2) [2] [s⁻¹] | Kd2 (off-rate, heterogeneous ligand model, set 2, strong interaction) [2] [s⁻¹] | IFN-γ secreted (ELISA, 72 h) by OT-I CD8+ T-cells co-cultured with BMDCs: Ova-loaded TLM-carrier capsid compared with free streptavidin-Ova [3] [fold] | stoichiometry N [4] | dissociation half-life (t 1/2) of the strong binding interaction [2] [min]
1 | recombinant hexa-his-streptavidin (from UniProt P22629 25-183) (natural protein) | 4 | 4.74 | 146000 | 8.16e-05 | 397000 | 0.0213 | 0.00126 | 0.00188 | – | – | –
2 | streptavidin-Ova fusion protein (streptavidin, hexa-his tag, ovalbumin) | – | 1.97 | 94200 | 0.000428 | 356000 | 0.0104 | 0.000823 | 0.0007 | > 10 | 4 | 16.5
